Results reported in patent US20100041597A1 (published 2010).
Where no end group is shown, it is not given here.

Legend:
PKC-δ (purified isoform) [1] = target: T1, PKC-δ (purified isoform) (Homo sapiens (Human), UniProt Q05655 1-676); assay: competitive ELISA on purified PKC-δ vs anti-PKC-δ Ab; PRE 200 µM
T1 construct: also called PKC-delta; PKCdelta
Method: (§1) Greiner 96 well ELISA plates were coated with the appropriate PKC isoform diluted in PBSN (PBS with Calcium/Magnesium+0.05% Sodium azide w/w). 50 μL/well at 250 ng/mL was used. Control wells contained PBSN only. Plates were incubated overnight at 4° C.
(§2) The plates were washed 3 times with 200 μL of dH₂O per well, then 100 μL of blocking solution was added per well and the plate incubated for 1 h at 37° C. The washing steps with dH₂O were repeated and 50 μL of the appropriate PRE solution (PRE stock solution [20 mM in DMSO] diluted in PBSN) was added and the plate incubated for 1 h at room temperature.
(§3) 50 μL of 1:1000 dilution of Alkaline Phosphatase (AP) conjugated antibody (anti-rabbit for all except zeta, which was anti-goat) was then added and the plate incubated for 1 h at room temperature. Washing with dH₂O was then repeated. Finally, 100 μL of pNPP solution in pNPP buffer (2 mM MgCl₂, 100 mM Sodium bicarbonate in water, pH 9.8) was added to all wells and incubated for 8 minutes for α, βI, βII ε, and ζ, or for 15-20 mins for […] (until sufficient coloration is observed). The reaction was stopped by addition of Stop solution (2N NaOH) and the absorbance at 405 nm was read on a Galaxy Plate reader.

[2] = target: T2, PKC-α (endogenous, human cell lysates and cells) (human, UniProt P17252 2-672); assay: anti-PKC-α immunofluorescence, V5E-transfected IMR-32 cells loaded with PRE (label on PKC-α and V5E); control with endocytosis reagent 113
T2 construct: Endogenous protein of human cell lysates, on Western blot membranes (denatured) or in fixed cells; also called PKC-alpha; PKC-A
Text: Neuroblastoma cells from the IMR-32 cell line were stably transfected with a vector containing the V5E sequence of PKC-α as outlined above in Example 13. The V5E sequence is part of the antigenic amino acid sequence that is used to raise the commercially available anti-PKC-α isoform-specific antibody.
The peptides PRE 1, 2, 3, 4, 5, 6, 7, 8, 9, 10, 11, 12 and 13 (see Table 3) were incorporated into the transfected IMR-32 cells via pinocytic endocytosis (Molecular Probes) according to the supplier's recommendations. Following fixation and permeabilization, PKC-α was detected using an Alexa fluor secondary antibody (as described above in Example 8).

PKC-δ (purified isoform) [3] = target: T1, PKC-δ (purified isoform); assay: competitive ELISA on purified PKC-δ vs anti-PKC-δ Ab; PRE 100 µM
Method: as §1, §2, §3

PKC-δ (purified isoform) [4] = target: T1, PKC-δ (purified isoform); assay: competitive ELISA on purified PKC-δ vs anti-PKC-δ Ab; PRE 50 µM
Method: as §1, §2, §3

[5] = target: T3, PKC-βII (purified isoform) (Homo sapiens (Human), UniProt P05771 2-621); assay: competitive ELISA on purified PKC-βII vs anti-PKC-βII Ab; PRE 50 µM
T3 construct: also called PKC-beta II
Method: as §1, §2, §3

[6] = target: T3, PKC-βII (purified isoform); assay: competitive ELISA on purified PKC-βII vs anti-PKC-βII Ab; PRE 100 µM
Method: as §1, §2, §3

[7] = target: T3, PKC-βII (purified isoform); assay: competitive ELISA on purified PKC-βII vs anti-PKC-βII Ab; PRE 200 µM
Method: as §1, §2, §3

[8] = target: T4, PKC-ε (endogenous, human cell extracts) (human, UniProt Q02156 1-737); assay: Protocol B blot competition, IMR-32 extract, competitor anti-PKC-ε Ab, Band 2; PRE 100 µg
T4 construct: Two bands on the blot, said to be alternate splicing variants; also called PKC-epsilon; PKC-ε Band 1
T4 sequence (looked up): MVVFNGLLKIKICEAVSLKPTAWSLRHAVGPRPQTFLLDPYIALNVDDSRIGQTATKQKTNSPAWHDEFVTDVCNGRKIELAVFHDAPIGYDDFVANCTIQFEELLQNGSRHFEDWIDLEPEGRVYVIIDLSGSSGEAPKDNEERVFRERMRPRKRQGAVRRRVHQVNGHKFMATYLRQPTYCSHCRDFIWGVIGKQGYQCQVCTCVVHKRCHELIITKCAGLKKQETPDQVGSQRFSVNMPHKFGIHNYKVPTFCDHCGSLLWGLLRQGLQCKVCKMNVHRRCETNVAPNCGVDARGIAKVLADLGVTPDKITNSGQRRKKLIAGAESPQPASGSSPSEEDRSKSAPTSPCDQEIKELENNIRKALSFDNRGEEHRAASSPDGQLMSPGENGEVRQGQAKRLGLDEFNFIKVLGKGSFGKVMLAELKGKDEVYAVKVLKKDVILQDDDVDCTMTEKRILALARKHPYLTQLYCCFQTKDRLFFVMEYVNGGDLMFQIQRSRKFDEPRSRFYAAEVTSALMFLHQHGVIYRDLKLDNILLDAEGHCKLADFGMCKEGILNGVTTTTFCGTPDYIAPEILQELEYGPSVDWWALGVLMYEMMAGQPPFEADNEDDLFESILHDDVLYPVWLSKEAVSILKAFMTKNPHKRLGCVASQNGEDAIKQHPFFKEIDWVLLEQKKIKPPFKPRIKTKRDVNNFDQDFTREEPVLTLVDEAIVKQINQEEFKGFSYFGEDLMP
Method: (§4) The ability of the peptides PRE 2 and PRE 3 (see Table 3) to interfere with the binding of a PKC-α-specific polyclonal antibody (Santa Cruz Biotechnology, Inc.) to PKC-α was determined using a modified version of the protocol outlined above in which the test peptide was added directly to the cell extract prior to electrophoresis at a concentration of either 5× or 15× the concentration of the protein applied to each well of the gel for the Western blots (20 μg).
(§5) Peptides PRE 2, PRE 3 and PRE 4 (see Table 3) were tested for their ability to interfere with the binding of isoform-specific polyclonal antibodies (Santa Cruz Biotechnology, Inc.) to PKC-ε using the general protocol described in Example 3. Two bands, representing alternate splicing variants of PKC-ε, were identified on the Western blot using this anti-PKC-ε antibody.

[9] = target: T4, PKC-ε (endogenous, human cell extracts); assay: Protocol B blot competition, IMR-32 extract, competitor anti-PKC-ε Ab, Band 1; PRE 50 µg
Method: as §4, §5

[10] = target: T4, PKC-ε (endogenous, human cell extracts); assay: Protocol B blot competition, IMR-32 extract, competitor anti-PKC-ε Ab, Band 1; PRE 20 µg
Method: as §4, §5

[11] = target: T4, PKC-ε (endogenous, human cell extracts); assay: Protocol B blot competition, IMR-32 extract, competitor anti-PKC-ε Ab, Band 2; PRE 20 µg
Method: as §4, §5

[12] = target: T4, PKC-ε (endogenous, human cell extracts); assay: Protocol B blot competition, IMR-32 extract, competitor anti-PKC-ε Ab, Band 1; PRE 100 µg
Method: as §4, §5

[13] = target: T4, PKC-ε (endogenous, human cell extracts); assay: Protocol B blot competition, IMR-32 extract, competitor anti-PKC-ε Ab, Band 2; PRE 50 µg
Method: as §4, §5

PKC-ζ (purified isoform) [14] = target: T5, PKC-ζ (purified isoform) (Homo sapiens (Human), UniProt Q05513 1-592); assay: competitive ELISA on purified PKC-ζ vs anti-PKC-ζ Ab; PRE 50 µM
T5 construct: also called PKC-zeta; PKCzeta
T5 sequence: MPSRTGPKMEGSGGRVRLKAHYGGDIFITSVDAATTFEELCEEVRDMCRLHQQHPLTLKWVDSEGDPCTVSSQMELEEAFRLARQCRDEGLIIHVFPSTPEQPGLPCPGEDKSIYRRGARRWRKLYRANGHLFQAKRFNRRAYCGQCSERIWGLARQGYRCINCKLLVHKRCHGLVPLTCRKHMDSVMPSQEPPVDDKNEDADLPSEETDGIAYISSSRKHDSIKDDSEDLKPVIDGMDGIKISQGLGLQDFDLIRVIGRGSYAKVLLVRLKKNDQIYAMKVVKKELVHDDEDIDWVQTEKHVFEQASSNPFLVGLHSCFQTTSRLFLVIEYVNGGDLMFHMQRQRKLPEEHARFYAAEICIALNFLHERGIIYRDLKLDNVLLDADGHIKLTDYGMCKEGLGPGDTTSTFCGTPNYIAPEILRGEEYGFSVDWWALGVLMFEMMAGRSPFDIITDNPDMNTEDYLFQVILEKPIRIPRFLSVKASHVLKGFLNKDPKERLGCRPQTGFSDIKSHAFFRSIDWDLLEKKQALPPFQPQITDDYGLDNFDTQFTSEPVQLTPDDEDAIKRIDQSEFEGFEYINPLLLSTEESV
Method: as §1, §2, §3

PKC-ζ (purified isoform) [15] = target: T5, PKC-ζ (purified isoform); assay: competitive ELISA on purified PKC-ζ vs anti-PKC-ζ Ab; PRE 100 µM
Method: as §1, §2, §3

PKC-ζ (purified isoform) [16] = target: T5, PKC-ζ (purified isoform); assay: competitive ELISA on purified PKC-ζ vs anti-PKC-ζ Ab; PRE 200 µM
Method: as §1, §2, §3

PKC-ζ (purified isoform) [17] = target: T5, PKC-ζ (purified isoform); assay: summary grade, purified isoform ELISA

T1 sequence (Q05655 whole entry, stated change not applied, canonical isoform): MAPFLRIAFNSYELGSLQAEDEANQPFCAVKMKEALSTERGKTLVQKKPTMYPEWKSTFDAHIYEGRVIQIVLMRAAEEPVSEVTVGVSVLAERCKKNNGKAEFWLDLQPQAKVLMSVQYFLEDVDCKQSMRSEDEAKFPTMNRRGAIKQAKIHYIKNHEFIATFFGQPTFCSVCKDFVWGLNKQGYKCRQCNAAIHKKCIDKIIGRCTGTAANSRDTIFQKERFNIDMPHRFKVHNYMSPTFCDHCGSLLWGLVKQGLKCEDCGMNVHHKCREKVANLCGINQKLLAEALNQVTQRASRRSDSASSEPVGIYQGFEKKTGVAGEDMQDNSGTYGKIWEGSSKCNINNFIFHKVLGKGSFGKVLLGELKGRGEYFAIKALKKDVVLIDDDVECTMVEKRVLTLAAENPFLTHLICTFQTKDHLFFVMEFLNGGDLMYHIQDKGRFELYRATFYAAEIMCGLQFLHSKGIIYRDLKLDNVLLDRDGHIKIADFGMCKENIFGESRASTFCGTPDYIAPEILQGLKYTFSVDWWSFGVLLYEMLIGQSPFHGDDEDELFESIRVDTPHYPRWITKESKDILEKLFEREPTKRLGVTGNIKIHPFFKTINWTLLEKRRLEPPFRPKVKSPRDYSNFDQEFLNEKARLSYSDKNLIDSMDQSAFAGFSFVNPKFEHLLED
T3 sequence (P05771 other isoform, or with tags, fused parts or gaps limits assumed): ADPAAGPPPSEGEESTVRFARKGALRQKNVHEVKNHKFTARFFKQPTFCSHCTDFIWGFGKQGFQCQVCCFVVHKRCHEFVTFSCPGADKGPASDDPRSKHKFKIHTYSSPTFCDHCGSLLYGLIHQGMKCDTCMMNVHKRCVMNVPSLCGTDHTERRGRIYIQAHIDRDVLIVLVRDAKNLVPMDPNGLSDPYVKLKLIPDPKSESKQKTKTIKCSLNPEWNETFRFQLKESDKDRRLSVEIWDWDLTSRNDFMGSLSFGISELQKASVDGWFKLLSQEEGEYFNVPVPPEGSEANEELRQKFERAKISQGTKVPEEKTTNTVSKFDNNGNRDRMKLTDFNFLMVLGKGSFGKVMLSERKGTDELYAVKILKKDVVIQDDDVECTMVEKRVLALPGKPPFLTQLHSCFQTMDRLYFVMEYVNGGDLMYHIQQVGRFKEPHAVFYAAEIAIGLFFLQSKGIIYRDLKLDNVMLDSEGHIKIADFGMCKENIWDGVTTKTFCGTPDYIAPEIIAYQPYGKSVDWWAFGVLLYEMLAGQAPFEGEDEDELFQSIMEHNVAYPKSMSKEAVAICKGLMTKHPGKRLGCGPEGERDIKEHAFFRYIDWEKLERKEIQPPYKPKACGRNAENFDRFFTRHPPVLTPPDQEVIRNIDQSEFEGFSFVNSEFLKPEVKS

B1: PRE 5 (peptide)
peptide: Ac-AKGIQEVKGGKDAQNLIGISI-NH2
notes: Synthetic peptide; also called peptide PRE 5
B1 was tested, and the “binding capacity (%)” value (PKC-δ (purified isoform) [1]) was 4.31%, the “Relative Fluorescence Intensity” value [2] was 124 and the “binding capacity (%)” value (PKC-δ (purified isoform) [3]) was 0%. The “binding capacity (%)” value (PKC-δ (purified isoform) [4]) was 0.2%.

B2: PRE 10 (peptide)
peptide: Ac-ISIGILNQADK-NH2
notes: Synthetic peptide; also called peptide PRE 10
In the case of B2, the “binding capacity (%)” value [5] is reported as 0%, the “Relative Fluorescence Intensity” value [2] is reported as 122 and the “binding capacity (%)” value [6] is reported as 0%. The “binding capacity (%)” value [7] was 0%.

B3: PRE 2 (peptide)
peptide: KDAQNLIGISL-NH2
notes: Synthetic peptide; also called peptide PRE 2
For B3, the band intensity [8] was 0, the “inhibition (%)” value [8] was 100% and the “relative intensity (%)” value [8] was 0%. For the same binder, the band intensity [9] was 0, the “inhibition (%)” value [9] was 100% and the “relative intensity (%)” value [9] was 0%. The band intensity [10] was 323, the “inhibition (%)” value [10] was 23.4% and the “relative intensity (%)” value [10] was 76.6%. The band intensity [11] was 160, the “inhibition (%)” value [11] was 38.6% and the “relative intensity (%)” value [11] was 61.4%. The band intensity [12] was 0, the “inhibition (%)” value [12] was 100% and the “relative intensity (%)” value [12] was 0%. For the same binder, the band intensity [13] was 0, the “inhibition (%)” value [13] was 100% and the “relative intensity (%)” value [13] was 0%.

B4: PRE 8 (peptide)
peptide: ILEDKGGDAQNLIGISI
notes: Synthetic peptide; termini given free; also called peptide PRE 8
B4 was tested, and the “binding capacity (%)” value (PKC-δ (purified isoform) [1]) was 6.68%, the “Relative Fluorescence Intensity” value [2] was 81 and the “binding capacity (%)” value (PKC-δ (purified isoform) [3]) was 3.38%. For the same binder, the “binding capacity (%)” value (PKC-ζ (purified isoform) [14]) was 0%, the “binding capacity (%)” value (PKC-ζ (purified isoform) [15]) was 0% and the “binding capacity (%)” value (PKC-ζ (purified isoform) [16]) was 0%. For the same binder, the “binding capacity (%)” value (PKC-δ (purified isoform) [4]) was 6.96% and the binding result (PKC-ζ (purified isoform) [17]) was “no binding (tested: 200 µM)”.
